Data: the supplement of paper PMC9732359
± gives the uncertainty stated by the source.

Test: protein stability index of a GFP-peptide fusion (yeast GPS) (PSI 1-4); higher = more stable; sorted into four equal gates, so the index is relative within each strain
Conditions: pdr5∆
How it was run: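 Tiled yeast protein peptides of 17 residues were each joined downstream of GFP, on plasmids that also express Cherry. The pooled library was maintained in yeast, and mid-log cultures in leucine-free medium were sorted into four equal gates on the GFP/Cherry ratio. Plasmids from every gate were amplified by PCR and sequenced on Illumina, with barcodes linking reads to strains. The protein stability index of a peptide is its gate-number-weighted read frequency summed over the gates.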

| Sequence | protein stability index |
| --- | --- |
| YWYEQDSAKEWPQSKNC [RPB3] | 3.3 ± 0.13 |

Same assay, conditions: san1∆

| Sequence | protein stability index |
| --- | --- |
| YDTQLKVSPEELPLVIT [ARP7] | 2.59 ± 0.041 |
| YEADQRKLFPNWIKPSD [PRP8] | 2.67 ± 0.11 |
| YFKLSITSFDQDVDDAH [POP8] | 1.78 ± 0.095 |
| YFLHLSVFNAELLKLLN [YCS4] | 1.8 ± 0.099 |
| YFLKVTFLKYFGWLLSD [IRR1] | 1.88 ± 0.09 |
| YFSNKTSTGIIRCHRED [POP5] | 2.62 ± 0.081 |
| YFWHKIWRKVPGDVLDK [SNU114] | 1.51 ± 0.23 |
| YGAYNTQIANAGASPMV [PRE4] | 1.92 ± 0.097 |
| YGGSRCANCVKERIVRA [RPL34B] | 2.87 ± 0.076 |
| YGHVFLGITGLATDVTT [PUP3] | 2.25 ± 0.15 |
| YGIPLEFYNEMHRPVHF [PRP8] | 1.98 ± 0.14 |
| YGKPTNQGVNELKYQRS [RPL15A] | 2.59 ± 0.14 |
| YGNDEEVLFYEDNYNPK [RPN4] | 3.12 ± 0.097 |
| YHGISKNDNIKKSVNKL [POP6] | 2.77 ± 0.05 |
| YIEASGREGIWSKTIKA [RPC34] | 2.3 ± 0.17 |
| YIKSATLYSVKSKEDMK [SNU114] | 3.18 ± 0.082 |
| YINGKATALANLRKSRG [RPO31] | 2.81 ± 0.064 |
| YINSDSVNPAMLPGSSN [RPO31] | 2.73 ± 0.15 |
| YISNLLYGVTICYNKKT [REC8] | 1.3 ± 0.077 |
| YIYSHVNKVPQNVAGDK [SWP82] | 2.96 ± 0.08 |
| YKRSIVRNYKPLINRLK [SWI1] | 1.65 ± 0.21 |
| YKWTQGINNLSEIWDVS [PRP8] | 3.12 ± 0.099 |
| YLACKVEECPQYIRTLV [SSN8] | 1.68 ± 0.16 |
| YLAHEDNKEKDFELEIS [PRE10] | 3.23 ± 0.1 |
| YLKHNSIAEEIPIAIVL [RET1] | 1.73 ± 0.085 |
| YLSGAIPNQEVLQYSDW [YDL116W/NUP84] | 2.29 ± 0.051 |
| YLTGGQQPTASDNIASL [SMD1] | 3.04 ± 0.099 |

| Sequence | protein stability index |
| --- | --- |
| YNALFQQNIKFRRDFLL [YJL039C/NUP192] | 2.4 ± 0.068 |
| YNGFIDIFSNLSSDDLL [YCS4] | 3.28 ± 0.056 |
| YNNKVGVAASQGSMSER [SIR2] | 2.49 ± 0.12 |
| YNSVAEAKKFEPTYRLV [RPS24A] | 2.71 ± 0.18 |
| YNTSILEFRWLTSSKSV [SIN4] | 1.96 ± 0.079 |
| YNVENQQYVAAGDLRAL [FAS1] | 2.82 ± 0.13 |
| YPVHEAHKGQIVLIKGI [SNU114] | 1.37 ± 0.15 |
| YQKLFSQFINDHILFTK [SRB8] | 2.04 ± 0.065 |
| YQWNLDGLQQLDKYLYV [RPN1] | 2.49 ± 0.12 |
| YSIDEFFLQRKLRSELG [BRR2] | 1.8 ± 0.16 |
| YSKNNPNLLFSMCGFEV [PRP8] | 2.17 ± 0.076 |
| YSKSFEQFKMVSMITDH [POP1] | 1.62 ± 0.26 |
| YSMISLQNCCIIDVGTH [ARP9] | 1.2 ± 0.15 |
| YSSVAGTVSRVNRLLSV [RRP4] | 1.82 ± 0.053 |
| YSTIRQLVYKRGFGKIN [RPL7A] | 2.24 ± 0.11 |
| YSWLLFEASCMEGQKLD [YJR042W/NUP85] | 1.39 ± 0.2 |
| YSYTTIVLSDQTQEFFL [YJL039C/NUP192] | 2.93 ± 0.081 |
| YTETDPAKVAEEGINKF [SRP54] | 2.9 ± 0.089 |
| YTKPYPNFEASFVHGVV [SMC2] | 2.47 ± 0.26 |
| YTPEESAWIWPMDEETK [RPC25] | 2.54 ± 0.086 |
| YVDTATAKRKSRKRKPK [IRR1] | 3.14 ± 0.16 |
| YVGEVIKIVSDKKVLVK [RPT6] | 3.08 ± 0.067 |
| YVNYEISTAKAWGALIT [YML103C/NUP188] | 1.3 ± 0.073 |
| YVRAKFLDYTTDNVSMY [PRP8] | 2.54 ± 0.063 |
| YWQFNGVIALGQFVTLG [RMP1] | 2.11 ± 0.086 |
| YWVPDWDGVIPTPAIIK [RPO21] | 2.8 ± 0.081 |
| YWYEQDSAKEWPQSKNC [RPB3] | 2.98 ± 0.13 |

Same assay, conditions: ubr1∆

| Sequence | protein stability index |
| --- | --- |
| YDTQLKVSPEELPLVIT [ARP7] | 2.62 ± 0.042 |
| YEADQRKLFPNWIKPSD [PRP8] | 2.96 ± 0.049 |
| YFKLSITSFDQDVDDAH [POP8] | 2.25 ± 0.055 |
| YFLHLSVFNAELLKLLN [YCS4] | 1.51 ± 0.053 |
| YFLKVTFLKYFGWLLSD [IRR1] | 1.8 ± 0.062 |
| YFSNKTSTGIIRCHRED [POP5] | 2.06 ± 0.059 |
| YFWHKIWRKVPGDVLDK [SNU114] | 1.22 ± 0.094 |
| YGAYNTQIANAGASPMV [PRE4] | 1.61 ± 0.063 |
| YGGSRCANCVKERIVRA [RPL34B] | 3.15 ± 0.14 |
| YGHVFLGITGLATDVTT [PUP3] | 2.29 ± 0.1 |
| YGIPLEFYNEMHRPVHF [PRP8] | 2.64 ± 0.15 |
| YGKPTNQGVNELKYQRS [RPL15A] | 3.03 ± 0.087 |
| YGNDEEVLFYEDNYNPK [RPN4] | 2.96 ± 0.074 |
| YGRQELADDLITKMLAS [RPN2] | 3 ± 0.079 |
| YHGISKNDNIKKSVNKL [POP6] | 2.85 ± 0.046 |
| YHQLLSDIESLEALMDI [SRB8] | 2.25 ± 0.2 |
| YIEASGREGIWSKTIKA [RPC34] | 2.42 ± 0.1 |
| YIESKFCPGEIVGKSNV [YMR129W/POM152] | 2.65 ± 0.07 |
| YIKSATLYSVKSKEDMK [SNU114] | 3.11 ± 0.087 |
| YINGKATALANLRKSRG [RPO31] | 3 ± 0.067 |

| Sequence | protein stability index |
| --- | --- |
| YINSDSVNPAMLPGSSN [RPO31] | 2.83 ± 0.074 |
| YISNLLYGVTICYNKKT [REC8] | 1.21 ± 0.03 |
| YIYSHVNKVPQNVAGDK [SWP82] | 2.97 ± 0.071 |
| YKRSIVRNYKPLINRLK [SWI1] | 1.98 ± 0.15 |
| YKWTQGINNLSEIWDVS [PRP8] | 2.44 ± 0.066 |
| YLACKVEECPQYIRTLV [SSN8] | 1.96 ± 0.17 |
| YLAHEDNKEKDFELEIS [PRE10] | 3.33 ± 0.072 |
| YLKHNSIAEEIPIAIVL [RET1] | 2.16 ± 0.05 |
| YLSGAIPNQEVLQYSDW [YDL116W/NUP84] | 2 ± 0.071 |
| YLTGGQQPTASDNIASL [SMD1] | 2.61 ± 0.18 |
| YNALFQQNIKFRRDFLL [YJL039C/NUP192] | 2.3 ± 0.055 |
| YNGFIDIFSNLSSDDLL [YCS4] | 3.08 ± 0.037 |
| YNNKVGVAASQGSMSER [SIR2] | 1.85 ± 0.064 |
| YNPKMIDDRDYVGNKRL [RET1] | 3.49 ± 0.26 |
| YNSVAEAKKFEPTYRLV [RPS24A] | 2.74 ± 0.072 |
| YNTSILEFRWLTSSKSV [SIN4] | 2.48 ± 0.1 |
| YNVENQQYVAAGDLRAL [FAS1] | 2.85 ± 0.13 |
| YPVHEAHKGQIVLIKGI [SNU114] | 2.87 ± 0.088 |
| YQKLFSQFINDHILFTK [SRB8] | 2 ± 0.04 |
| YQWNLDGLQQLDKYLYV [RPN1] | 2.2 ± 0.046 |

| Sequence | protein stability index |
| --- | --- |
| YSIDEFFLQRKLRSELG [BRR2] | 1.5 ± 0.22 |
| YSKNNPNLLFSMCGFEV [PRP8] | 2.4 ± 0.092 |
| YSKSFEQFKMVSMITDH [POP1] | 1.95 ± 0.15 |
| YSMISLQNCCIIDVGTH [ARP9] | 1.33 ± 0.083 |
| YSSVAGTVSRVNRLLSV [RRP4] | 1.8 ± 0.03 |
| YSTIRQLVYKRGFGKIN [RPL7A] | 1.98 ± 0.049 |
| YSWLLFEASCMEGQKLD [YJR042W/NUP85] | 1.17 ± 0.064 |
| YSYTTIVLSDQTQEFFL [YJL039C/NUP192] | 2.82 ± 0.062 |
| YTETDPAKVAEEGINKF [SRP54] | 3.04 ± 0.095 |
| YTKPYPNFEASFVHGVV [SMC2] | 2.33 ± 0.14 |
| YTPEESAWIWPMDEETK [RPC25] | 2.65 ± 0.098 |
| YVDTATAKRKSRKRKPK [IRR1] | 3.12 ± 0.066 |
| YVGEVIKIVSDKKVLVK [RPT6] | 2.94 ± 0.073 |
| YVNYEISTAKAWGALIT [YML103C/NUP188] | 1.4 ± 0.06 |
| YVRAKFLDYTTDNVSMY [PRP8] | 2.82 ± 0.061 |
| YWQFNGVIALGQFVTLG [RMP1] | 2.91 ± 0.055 |
| YWVPDWDGVIPTPAIIK [RPO21] | 2.8 ± 0.079 |
| YWYEQDSAKEWPQSKNC [RPB3] | 3.43 ± 0.22 |
